Results from US12077763B2, “RNA-based control of powdery mildew” (Greenlight Biosciences, Inc., priority 2021, dated 2024).

B1: GS3617 (nucleic acid)
sense: UCAUGGAAAGAGUAGUUGGAUACGAGAUAUAGAAGGCUGUGAUGCCUUCAGUGCGAUAGAUAUAGCGGGCACAAUCACUCAGUGAUCUAUAAAUUUUGCGAGAGUUAUGCAUUUGCAUUCUUUGCUUUAUUACAUCAAAUGGGUUCAUUAAAGCAUCACUUGCAAUUGUUGCGCAUGCCCCACUUGUAACUAUGUAGCUUCAGUAAGUGCUCAAUAUCAAGGAUAAAUUGGCGAUGUAGUCAUAUAUGUC
antisense: GACAUAUAUGACUACAUCGCCAAUUUAUCCUUGAUAUUGAGCACUUACUGAAGCUACAUAGUUACAAGUGGGGCAUGCGCAACAAUUGCAAGUGAUGCUUUAAUGAACCCAUUUGAUGUAAUAAAGCAAAGAAUGCAAAUGCAUAACUCUCGCAAAAUUUAUAGAUCACUGAGUGAUUGUGCCCGCUAUAUCUAUCGCACUGAAGGCAUCACAGCCUUCUAUAUCUCGUAUCCAACUACUCUUUCCAUGA
B2: GS3620 (nucleic acid)
sense: AGUUGAAGUGCUGUAAAUGGUACAGUCAUGGAAAGAGUAGUUGGAUACGAGAUAUAGAAGGCUGUGAUGCCUUCAGUGCGAUAGAUAUAGCGGGCACAAUCACUCAGUGAUCUAUAAAUUUUGCGAGAGUUAUGCAUUUGCAUUCUUUGCUUUAUUACAUCAAAUGGGUUCAUUAAAGCAUCACUUGCAAUUGUUGCGCAUGCCCCACUUGUAACUAUGUAGCUUCAGUAAGUGCUCAAUAUCAAGGAUAAAUUGGCGAUGUAGUCAUAUAUGUCUGAUUCCUUAAUCAAAAUUCUUAAU
antisense: AUUAAGAAUUUUGAUUAAGGAAUCAGACAUAUAUGACUACAUCGCCAAUUUAUCCUUGAUAUUGAGCACUUACUGAAGCUACAUAGUUACAAGUGGGGCAUGCGCAACAAUUGCAAGUGAUGCUUUAAUGAACCCAUUUGAUGUAAUAAAGCAAAGAAUGCAAAUGCAUAACUCUCGCAAAAUUUAUAGAUCACUGAGUGAUUGUGCCCGCUAUAUCUAUCGCACUGAAGGCAUCACAGCCUUCUAUAUCUCGUAUCCAACUACUCUUUCCAUGACUGUACCAUUUACAGCACUUCAACU
B3: GS3616 (nucleic acid)
sense: UUAAAAGUUGCGGUUUAACUUAAGCUGUAGCCGCAACAGUUUCAGCUGUCCCAGCUAGUCCUUCUGAUUGAAGUUUAUCAUUAGUAAUCCCUUUAGCGAUGGCGCCAUUAGUACCUUCGGUUGAGUUGCCAACAUUAGAUACUUCGCCAGCACCAUCAGAUACAUGUGUAGUUAAUUCUUCAGAGGUCUUGUCCGGACUAUCUAUUGCGAUCUUUACUGCAAUCUCACGACCUUGAACUUCUUUUCCAUUCAUUUCGGCAACAGCCCUAUUUUGAAGUUCAUUAGAUGCUAAGUUCACAAAGCCAAACCCACGGCCUUUCCGAGGUUCGUUGCGGGCCUGAAGCUUUUUAACCAUGAAUUUUGGAAUAGGACGCAGAGCAAUUUUGGCAGAUACUGGUUC
antisense: GAACCAGUAUCUGCCAAAAUUGCUCUGCGUCCUAUUCCAAAAUUCAUGGUUAAAAAGCUUCAGGCCCGCAACGAACCUCGGAAAGGCCGUGGGUUUGGCUUUGUGAACUUAGCAUCUAAUGAACUUCAAAAUAGGGCUGUUGCCGAAAUGAAUGGAAAAGAAGUUCAAGGUCGUGAGAUUGCAGUAAAGAUCGCAAUAGAUAGUCCGGACAAGACCUCUGAAGAAUUAACUACACAUGUAUCUGAUGGUGCUGGCGAAGUAUCUAAUGUUGGCAACUCAACCGAAGGUACUAAUGGCGCCAUCGCUAAAGGGAUUACUAAUGAUAAACUUCAAUCAGAAGGACUAGCUGGGACAGCUGAAACUGUUGCGGCUACAGCUUAAGUUAAACCGCAACUUUUAA
B4: GS3615 (nucleic acid)
sense: UAUCAUUAGUAAUCCCUUUAGCGAUGGCGCCAUUAGUACCUUCGGUUGAGUUGCCAACAUUAGAUACUUCGCCAGCACCAUCAGAUACAUGUGUAGUUAAUUCUUCAGAGGUCUUGUCCGGACUAUCUAUUGCGAUCUUUACUGCAAUCUCACGACCUUGAACUUCUUUUCCAUUCAUUUCGGCAACAGCCCUAUUUUGAAGUUCAUUAGAUGCUAAGUUCACAAAGCCAAACCCACGGCCUUUCCGAGG
antisense: CCUCGGAAAGGCCGUGGGUUUGGCUUUGUGAACUUAGCAUCUAAUGAACUUCAAAAUAGGGCUGUUGCCGAAAUGAAUGGAAAAGAAGUUCAAGGUCGUGAGAUUGCAGUAAAGAUCGCAAUAGAUAGUCCGGACAAGACCUCUGAAGAAUUAACUACACAUGUAUCUGAUGGUGCUGGCGAAGUAUCUAAUGUUGGCAACUCAACCGAAGGUACUAAUGGCGCCAUCGCUAAAGGGAUUACUAAUGAUA
B5: GS3618 (nucleic acid)
sense: CGUAAGCCUUUGAUGGGUUCAGAAAUGUAGAUACAGAUUCGUAUGCGAGAAGUUGAAGUGCUGUAAAUGGUACAGUCAUGGAAAGAGUAGUUGGAUACGAGAUAUAGAAGGCUGUGAUGCCUUCAGUGCGAUAGAUAUAGCGGGCACAAUCACUCAGUGAUCUAUAAAUUUUGCGAGAGUUAUGCAUUUGCAUUCUUUGCUUUAUUACAUCAAAUGGGUUCAUUAAAGCAUCACUUGCAAUUGUUGCGCAUGCCCCACUUGUAACUAUGUAGCUUCAGUAAGUGCUCAAUAUCAAGGAUAAAUUGGCGAUGUAGUCAUAUAUGUCUGAUUCCUUAAUCAAAAUUCUUAAUACAGACCUGCUGCAAUAGGAUGAUGAGCUCCUGUUUGAUUACCUCCCAUG
antisense: CAUGGGAGGUAAUCAAACAGGAGCUCAUCAUCCUAUUGCAGCAGGUCUGUAUUAAGAAUUUUGAUUAAGGAAUCAGACAUAUAUGACUACAUCGCCAAUUUAUCCUUGAUAUUGAGCACUUACUGAAGCUACAUAGUUACAAGUGGGGCAUGCGCAACAAUUGCAAGUGAUGCUUUAAUGAACCCAUUUGAUGUAAUAAAGCAAAGAAUGCAAAUGCAUAACUCUCGCAAAAUUUAUAGAUCACUGAGUGAUUGUGCCCGCUAUAUCUAUCGCACUGAAGGCAUCACAGCCUUCUAUAUCUCGUAUCCAACUACUCUUUCCAUGACUGUACCAUUUACAGCACUUCAACUUCUCGCAUACGAAUCUGUAUCUACAUUUCUGAACCCAUCAAAGGCUUACG
B6: GS3619 (nucleic acid)
sense: UGUAGAUACAGAUUCGUAUGCGAGAAGUUGAAGUGCUGUAAAUGGUACAGUCAUGGAAAGAGUAGUUGGAUACGAGAUAUAGAAGGCUGUGAUGCCUUCAGUGCGAUAGAUAUAGCGGGCACAAUCACUCAGUGAUCUAUAAAUUUUGCGAGAGUUAUGCAUUUGCAUUCUUUGCUUUAUUACAUCAAAUGGGUUCAUUAAAGCAUCACUUGCAAUUGUUGCGCAUGCCCCACUUGUAACUAUGUAGCUUCAGUAAGUGCUCAAUAUCAAGGAUAAAUUGGCGAUGUAGUCAUAUAUGUCUGAUUCCUUAAUCAAAAUUCUUAAUACAGACCUGCUGCAAUAGGAUGAUG
antisense: CAUCAUCCUAUUGCAGCAGGUCUGUAUUAAGAAUUUUGAUUAAGGAAUCAGACAUAUAUGACUACAUCGCCAAUUUAUCCUUGAUAUUGAGCACUUACUGAAGCUACAUAGUUACAAGUGGGGCAUGCGCAACAAUUGCAAGUGAUGCUUUAAUGAACCCAUUUGAUGUAAUAAAGCAAAGAAUGCAAAUGCAUAACUCUCGCAAAAUUUAUAGAUCACUGAGUGAUUGUGCCCGCUAUAUCUAUCGCACUGAAGGCAUCACAGCCUUCUAUAUCUCGUAUCCAACUACUCUUUCCAUGACUGUACCAUUUACAGCACUUCAACUUCUCGCAUACGAAUCUGUAUCUACA

System: E. necator
Assay: Leaf disc assay, dry inoculum (settling tower), decrease in disease severity / hyphal growth (Example 2)
Conditions: decrease in disease severity (hyphal growth) relative to untreated control, value ± SE; for % decrease =/− SE TP1: time point 1 (untreated control hyphal growth ≥50%); for % decrease =/− SE TP2: time point 2

Molecule | % decrease =/− SE TP1 [%] | % decrease =/− SE TP2 [%]
B1 | 22 ± 6 | 14 ± 6
B2 | 6 ± 8 | 8 ± 7
B3 | 14 ± 4 | 
B4 | 4 ± 5 | 5 ± 5
B5 | 27 ± 4 | 
B6 | 9 ± 2 | 
